Source: US12589171B2, “177-Lu labeled peptide for site-specific uPAR-targeting” (priority 2012, dated 2026)
Read-outs that look alike come from different tables or passages of the source. Residues, ends and D or L forms follow the SMILES beside them.

Experiments:
[1] = Toxicity in HT-29 therapy study (body weight, kidney H&E, deaths); assay type: in vivo, NMRI nude mice
Text: Results are presented as the mean±SEM, n=6 animals/group. B, H&E staining of kidney sections representing kidney epithelia (top) and glomerulus (Bottom) from each treatment group. […] One pair of kidneys from one animal/group was stained. Scale bar=25 μm, 40× zoom.
Three days after tumor cell inoculation (study day 0), 18 nude mice bearing the human colorectal carcinoma xenograft HT-29 in each flank were randomly divided into three groups consisting of 6 animals each. All animals in each group were first baseline PET/CT scanned with ^18F-FLT (day 0) before being dosed with 20 MBq of either ^177Lu-DOTA-AE105, ^177Lu-DOTA-AE105mut or vehicle. Subsequently, PET/CT scans of all mice in each group were repeated with ^18F-FLT on study day 1, 3 and 6. Second treatment dose (20 MBq) was administrated on day 7, followed by CT-scan day 8, 10 and 14 to measure tumor volumes using manual ROI drawing on the reconstructed images. On day 14, all animals were euthanized and tumors and kidneys were collected and kept for further analysis at −80° C.
uPAR ELISA on resected HT-29 tumors was done as described previously in detail. All results were performed as duplicate measurements. Expression of uPAR in formalin fixed and paraffin embedded tumor tissue was evaluated by immunohistochemical staining (FIG. 7) as previously published. A general histopathology examination was performed on H&E stained kidney tissue (one pair of kidneys from one animal from each treatment group) and performed by a trained pathologist (ODL).

[2] = Biodistribution in Nude mice bearing HT-29 tumor xenograft (gamma-counter); assay type: in vivo, NMRI nude mice; conditions: female, NMRI nude, mouse, iv, total radioactivity
Protocol: (§1) Mice were sacrificed at 0.5, 1.0, 2.0, 4.0 and 24.0 h after injection, and a panel of organs, including blood drawn from the heart, was collected, weighed, and analyzed for radioactive content. Mean percent injected dose per gram (% ID/g)±SEM from three mice at each point is presented. A. Chemical structure of ^177Lu-DOTA-AE105. B(top) Biodistribution of ^177Lu-DOTA-AE105 in selected organs/tissues between 0.5 and 24.0 h. B (bottom). […] HT-29 colorectal cancer cells were obtained from the American Type Culture Collection (Manassas, VA, USA) and culture media was obtained from Invitrogen Co. (Carlsbad, CA, USA). The cell line was cultured in Mc.Coy's standard medium supplemented with 10% (v/v) fetal bovine serum and 1% (v/v) penicillin/Streptomycin at 37° C. and 5% CO2. Xenografts of human HT-29 colorectal cancer cells was established by injection of 200 μl cells (1×10^8 cells/ml) suspended in 100 μl Matrigel (BD Biosciences, San Jose, CA, USA), subcutaneously in the left and right flank of female NMRI nude mice obtained from Taconic, under anesthesia by Hypnorm/doricum (Study day −3). All animal experiments were performed under a protocol approved by the Animal Research Committee of the Danish Ministry of Justice. Biodistribution study was performed as previously described. In brief, Nude mice bearing HT-29 xenografts were injected in the tail-vein with 2-3 MBq of ^177Lu-DOTA-AE105 or ^177Lu-DOTA-AE105mut. All mice were euthanized after 0.5, 1, 2, 4 and 24 hr post tracer injection. Blood, tumor and major organs were collected (wet-weight) and the radioactivity was measured using a γ-counter from Perkin Elmer, MA, USA (N=4 mice/group).

[3] = tested on: HT-29 tumor xenograft; assay: as above; assay type: in vivo, NMRI nude mice; conditions: mouse, in vivo
Protocol: as §1

[4] = design: species or system NMRI nude mice; conditions: mouse, in vivo
Text: The organ uptake values, were time integrated to obtain the residence time per gram tissue for dosimetry calculations. Integration between time 0 and 24 hr was made by the trapezoid method. All time points were used to fit to a double exponential function (2-compartment model), which was used to estimate the residence time from 24 hr to infinity. The extrapolated area was in all organs/tissues <17% of the total calculated area, except kidneys (36.1%) and spleen (30.0%). The radioactive decay of ^177Lu produces mainly low energy […]. The S value for a 1 g sphere (0.0233 mGy/MBq s) was used to calculate the organ doses by multiplying it to the organ residence values as previously described. Based on the biodistribution data of ^177Lu-DOTA-AE105, estimates of the dosimetry were calculated (Table 1). […] However, the uPAR-positive fraction of the HT-29 tumor have previously been found only to be located in periphery of the tumor[25]. […] With this is mind and with the knowledge of the small penetration range of ^177Lu beta radiation (<2 mm), the present inventors calculated an estimate of local uPAR-positive tumor fraction dosimetry of approximate 58 mGy/MBq, thus resulting in the highest exposure for all organs/tissue investigated.

For CC(C)C[C@H](NC(=O)[C@H](Cc1ccc(O)cc1)NC(=O)C(CCCNC(=N)N)NC(=O)C(CO)NC(=O)C(Cc1ccccc1)NC(=O)[C@H](CC1CCCCC1)NC(=O)[C@H](CC(=O)O)NC(=O)CN1CCN(CC(=O)O)CCN(CC(=O)O)CCN(CC(=O)O)CC1)C(=O)N[C@@H](Cc1c[nH]c2ccccc12)C(=O)N[C@@H](CO)C(N)=O (some centres unmarked) [^177Lu-DOTA-AE105, metal not drawn], the premature deaths ([1]; HT-29 study) was “No animals died prematurely”, the tissue to tissue ratio at 1 h ([2]; in vivo) was 12 and the tissue to tissue ratio at 24 h ([2]; in vivo) was 3.3. The tissue uptake at 0.5 h ([2]; in vivo, % ID/g Blood) was 2.71 %ID/g, the tissue uptake at 1 h ([2]; in vivo, % ID/g Blood) was 0.282 %ID/g and the tissue uptake at 2 h ([2]; in vivo, % ID/g Blood) was 0.173 %ID/g. It also gave a tissue uptake at 4 h ([2]; in vivo, % ID/g Blood) of 0.043 %ID/g, a tissue uptake at 24 h ([2]; in vivo, % ID/g Blood) of 0.005 %ID/g and a tissue uptake at 0.5 h ([2]; in vivo, % ID/g Bone) of 0.696 %ID/g. For the same compound, the tissue uptake at 1 h ([2]; in vivo, % ID/g Bone) was 0.699 %ID/g, the tissue uptake at 2 h ([2]; in vivo, % ID/g Bone) was 0.267 %ID/g and the tissue uptake at 4 h ([2]; in vivo, % ID/g Bone) was 0.258 %ID/g. The tissue uptake at 24 h ([2]; in vivo, % ID/g Bone) was 0.32 %ID/g, the tissue uptake at 0.5 h ([2]; in vivo, % ID/g Brain) was 0.075 %ID/g and the tissue uptake at 1 h ([2]; in vivo, % ID/g Brain) was 0.038 %ID/g. For the same compound, the tissue uptake at 2 h ([2]; in vivo, % ID/g Brain) was 0.026 %ID/g, the tissue uptake at 4 h ([2]; in vivo, % ID/g Brain) was 0.019 %ID/g and the tissue uptake at 24 h ([2]; in vivo, % ID/g Brain) was 0.005 %ID/g. The tissue uptake at 0.5 h ([2]; in vivo, % ID/g Heart) was 0.757 %ID/g, the tissue uptake at 1 h ([2]; in vivo, % ID/g Heart) was 0.143 %ID/g and the tissue uptake at 2 h ([2]; in vivo, % ID/g Heart) was 0.082 %ID/g. The tissue uptake at 4 h ([2]; in vivo, % ID/g Heart) was 0.05 %ID/g, the tissue uptake at 24 h ([2]; in vivo, % ID/g Heart) was 0.017 %ID/g and the tissue uptake at 0.5 h ([2]; in vivo, % ID/g Intestine) was 0.579 %ID/g. For the same compound, the tissue uptake at 1 h ([2]; in vivo, % ID/g Intestine) was 0.196 %ID/g, the tissue uptake at 2 h ([2]; in vivo, % ID/g Intestine) was 0.271 %ID/g and the tissue uptake at 4 h ([2]; in vivo, % ID/g Intestine) was 0.289 %ID/g. The tissue uptake at 24 h ([2]; in vivo, % ID/g Intestine) was 0.078 %ID/g, the tissue uptake at 0.5 h ([2]; in vivo, % ID/g Liver) was 0.686 %ID/g and the tissue uptake at 1 h ([2]; in vivo, % ID/g Liver) was 0.249 %ID/g. The tissue uptake at 2 h ([2]; in vivo, % ID/g Liver) was 0.243 %ID/g, the tissue uptake at 4 h ([2]; in vivo, % ID/g Liver) was 0.284 %ID/g and the tissue uptake at 24 h ([2]; in vivo, % ID/g Liver) was 0.149 %ID/g. For the same compound, the tissue uptake at 0.5 h ([2]; in vivo, % ID/g Muscle) was 0.58 %ID/g, the tissue uptake at 1 h ([2]; in vivo, % ID/g Muscle) was 0.084 %ID/g and the tissue uptake at 2 h ([2]; in vivo, % ID/g Muscle) was 0.047 %ID/g. It also gave a tissue uptake at 4 h ([2]; in vivo, % ID/g Muscle) of 0.053 %ID/g, a tissue uptake at 24 h ([2]; in vivo, % ID/g Muscle) of 0.01 %ID/g and a tissue uptake at 0.5 h ([2]; in vivo, % ID/g Spleen) of 0.924 %ID/g. The tissue uptake at 1 h ([2]; in vivo, % ID/g Spleen) was 0.262 %ID/g, the tissue uptake at 2 h ([2]; in vivo, % ID/g Spleen) was 0.222 %ID/g and the tissue uptake at 4 h ([2]; in vivo, % ID/g Spleen) was 0.303 %ID/g. The tissue uptake at 24 h ([2]; in vivo, % ID/g Spleen) was 0.109 %ID/g, the tissue uptake at 0.5 h ([2]; in vivo, % ID/g Tumor) was 1.78 %ID/g and the tissue uptake at 1 h ([2]; in vivo, % ID/g Tumor) was 0.614 %ID/g. For the same compound, the tissue uptake at 2 h ([2]; in vivo, % ID/g Tumor) was 0.17 %ID/g, the tissue uptake at 4 h ([2]; in vivo, % ID/g Tumor) was 0.17 ± 0.02 %ID/g and the tissue uptake at 24 h ([2]; in vivo, % ID/g Tumor) was 0.057 %ID/g. It also gave a tissue uptake at 0.5 h ([2]; kidney, Kidney, 0.5 h after injection, read-out: % ID/g Kidney) of 6.17 %ID/g, a tissue uptake at 1 h ([2]; kidney, Kidney, 1.0 h after injection, read-out: % ID/g Kidney) of 2.44 %ID/g and a tissue uptake at 2 h ([2]; kidney, Kidney, 2.0 h after injection, read-out: % ID/g Kidney) of 1.91 %ID/g. The tissue uptake at 4 h ([2]; kidney, Kidney, 4.0 h after injection, read-out: % ID/g Kidney) was 1.67 %ID/g, the tissue uptake at 24 h ([2]; kidney, Kidney, 24 h after injection, read-out: % ID/g Kidney) was 0.839 %ID/g and the “% ID/g Tumor” value ([3]; female, NMRI nude, iv, 4 h) was 0.176 % ID/g. For the same compound, the “clearance from blood and organs” value [3] was “fast clearance rate from blood and all organs investigated”, the “Dosimetry Blood” value [4] was 4.9 mGy/MBq and the “Dosimetry Bone” value [4] was 1.8 mGy/MBq. For the same compound, the “Dosimetry Brain” value [4] was 0.4 mGy/MBq, the “Dosimetry Heart” value [4] was 2.0 mGy/MBq and the “Dosimetry Intestine” value [4] was 2.9 mGy/MBq. For the same compound, the “Dosimetry Kidney” value [4] was 52.9 mGy/MBq, the “Dosimetry Liver” value [4] was 2.4 mGy/MBq and the “Dosimetry Muscle” value [4] was 1.2 mGy/MBq. The “Dosimetry Spleen” value [4] was 5.5 mGy/MBq and the “Dosimetry Tumor” value [4] was 5.8 mGy/MBq.

With CC(C)C[C@H](NC(=O)[C@H](Cc1ccc(O)cc1)NC(=O)[C@@H](CCCNC(=N)N)NC(=O)[C@@H](CO)NC(=O)[C@H](CCC(=O)O)NC(=O)[C@H](CC1CCCCC1)NC(=O)[C@H](CC(=O)O)NC(=O)CN1CCN(CC(=O)O)CCN(CC(=O)O)CCN(CC(=O)O)CC1)C(=O)N[C@@H](CCC(=O)O)C(=O)N[C@@H](CO)C(N)=O [^177Lu-DOTA-AE105mut, metal not drawn, reference compound] (HELM PEPTIDE1{[O=C(O)CN1CCN(CC(=O)O)CCN(CC(=O)[*:2])CCN(CC(=O)O)CC1].D.[Cha].E.[dS].[dR].Y.L.E.S.[am]}$$$$V2.0) the “animal body weight between treatment groups” value ([1]; mouse, in vivo) was “No significant differences in the mean body weights”, the “kidney histopathology (H&E staining)” value ([1]; mouse, in vivo) was “no gross macroscopic morphological changes” and the tissue uptake at 0.5 h ([2]; in vivo, % ID/g Blood) was 0.959 %ID/g. It also gave a tissue uptake at 0.5 h ([2]; in vivo, % ID/g Bone) of 0.39 %ID/g, a tissue uptake at 0.5 h ([2]; in vivo, % ID/g Brain) of 0.081 %ID/g and a tissue uptake at 0.5 h ([2]; in vivo, % ID/g Heart) of 0.278 %ID/g. It also gave a tissue uptake at 0.5 h ([2]; in vivo, % ID/g Intestine) of 0.2 %ID/g, a tissue uptake at 0.5 h ([2]; in vivo, % ID/g Kidney) of 3.01 %ID/g and a tissue uptake at 0.5 h ([2]; in vivo, % ID/g Liver) of 0.228 %ID/g. The tissue uptake at 0.5 h ([2]; in vivo, % ID/g Muscle) was 0.235 %ID/g, the tissue uptake at 0.5 h ([2]; in vivo, % ID/g Spleen) was 0.163 %ID/g and the tissue uptake at 0.5 h ([2]; in vivo, % ID/g Tumor) was 0.708 %ID/g.
